HscA ATPase activity, 23 °C, in the absence of IscU: maximal stimulation data for 2 molecules are collected here from article PMC2627783.

Substitutions are numbered along the chain they refer to. In names and notes the source's numbering stands.

For the assay, the target named is HscA (UniProt P0A6Z1).
Sequence of HscA (P0A6Z1 whole entry): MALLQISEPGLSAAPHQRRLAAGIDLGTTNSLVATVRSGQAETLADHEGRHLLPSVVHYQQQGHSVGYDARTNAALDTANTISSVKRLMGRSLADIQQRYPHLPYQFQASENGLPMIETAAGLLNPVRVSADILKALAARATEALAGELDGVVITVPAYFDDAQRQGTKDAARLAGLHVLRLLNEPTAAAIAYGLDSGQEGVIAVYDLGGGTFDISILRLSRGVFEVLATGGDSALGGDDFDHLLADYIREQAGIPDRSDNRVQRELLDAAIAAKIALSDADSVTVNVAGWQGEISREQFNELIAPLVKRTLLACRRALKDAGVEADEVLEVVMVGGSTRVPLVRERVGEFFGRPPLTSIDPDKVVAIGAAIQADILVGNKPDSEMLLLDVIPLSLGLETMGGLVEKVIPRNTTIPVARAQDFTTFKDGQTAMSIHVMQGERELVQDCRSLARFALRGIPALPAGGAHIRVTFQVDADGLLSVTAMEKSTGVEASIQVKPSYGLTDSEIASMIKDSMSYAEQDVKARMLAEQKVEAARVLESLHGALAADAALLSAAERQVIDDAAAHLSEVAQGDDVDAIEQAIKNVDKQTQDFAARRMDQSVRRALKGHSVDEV

B1: HscB(E97A,E100A,E104A) (natural protein)
chain: MDYFTLFGLPARYQLDTQALSLRFQDLQRQYHPDKFASGSQAEQLAAVQQSATINQAWQTLRHPLMRAEYLLSLHGFDLASEQHTVRDTAFLMEQLALRAELDAIEQAKDEARLESFIKRVKKMFDTRHQLMVEQLDNETWDAAADTVRKLRFLDKLRSSAEQLEEKLLDF
As to B1, the HscA ATPase activity, 23 °C, in the absence of IscU: maximal stimulation was determined as 4.3 fold.

B2: HscB(L92A,M93A,F153A) (natural protein)
chain: B1 chain with L92A, M93A, A97E, A100E, A104E, F153A
In turn, B2 showed a HscA ATPase activity, 23 °C, in the absence of IscU: maximal stimulation of 3.8 fold.
